# No end group written: not given here.
# Target: Polymorphonuclear leukocyte elastase from human sputum (EPC Co.; Funakoshi Yakuhin) (human) (UniProt P08246)
binder,measurement,value
"RKPGKCPVTYGQCLMLNPPNFCEMDGQCKRDLKCCMGMCGKSCVSPVKA (also: oligomer formed during refolding, number of chains and linkages not given here) [by-product oligomer formed in Example 17]",IC50,300 nM
